Measurements from patent US10786576B2, “Fatty acids and their use in conjugation to biomolecules” (Novartis AG, dated 2020).
Positions of bridges follow the written chain, without caps; N, C: chain ends. Non-standard residues stand in square brackets, D forms with d. No end group written: not given here. pGlu = O=C1CC[C@@H](C(=O)O)N1; Nle = CCCC[C@H](N)C(=O)O; I‑37 = not defined here

Assays:
RXFP1 [1] = biological target: RXFP1
RXFP1 [2] = biological target: RXFP1; remark: listed apart in the source
APJ = APJ (human, UniProt P35414); test: cell-based or functional assay
[3] = biological target: hFGF23-variant of Example 28B

Sequence of MC3R (P41968 whole entry): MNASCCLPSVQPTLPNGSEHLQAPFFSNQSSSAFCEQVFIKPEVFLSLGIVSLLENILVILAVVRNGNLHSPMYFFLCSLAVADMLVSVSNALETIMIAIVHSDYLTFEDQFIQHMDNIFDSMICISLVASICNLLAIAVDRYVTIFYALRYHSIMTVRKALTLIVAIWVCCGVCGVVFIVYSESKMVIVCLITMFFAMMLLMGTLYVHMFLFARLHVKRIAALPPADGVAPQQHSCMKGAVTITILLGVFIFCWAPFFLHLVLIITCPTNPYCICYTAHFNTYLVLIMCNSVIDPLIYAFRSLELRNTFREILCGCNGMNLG
Sequence of oxytocin receptor (P30559 whole entry): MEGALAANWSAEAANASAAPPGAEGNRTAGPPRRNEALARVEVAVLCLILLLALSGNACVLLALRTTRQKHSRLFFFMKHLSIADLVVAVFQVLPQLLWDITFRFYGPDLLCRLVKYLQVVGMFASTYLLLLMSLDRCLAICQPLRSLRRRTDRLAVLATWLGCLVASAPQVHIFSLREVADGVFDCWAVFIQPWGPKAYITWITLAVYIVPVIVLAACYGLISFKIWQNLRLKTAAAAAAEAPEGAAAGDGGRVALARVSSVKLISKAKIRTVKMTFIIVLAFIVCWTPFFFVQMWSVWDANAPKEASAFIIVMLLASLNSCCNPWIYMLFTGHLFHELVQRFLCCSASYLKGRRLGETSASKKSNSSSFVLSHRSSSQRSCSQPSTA

Oxytocin (peptide)
Emax (the concentration where the reference agonist elicited a maximal response), calcium flux (oxytocin receptor): 1.25 µM

Serelaxin (ligand)
cAMP (HTRF), agonist mode, EC50 (RXFP1 [1]): 1.12 nM | cAMP (HTRF), Ec50 (nM), 0% Plasma (RXFP1 [2]): 8 nM | cAMP (HTRF), Ec50 (nM), 4% Plasma (RXFP1 [2]): 0.3 nM | cAMP (HTRF), Ec50 (nM), 10% Plasma (RXFP1 [2]): 0.4 nM | cAMP (HTRF), Ec50 (nM), 600 uL BSA (RXFP1 [2]): 0.7 nM

B1: pE-R-P-R-L-C*-H-K-G-P-Nle-C*-F-OH (Disulfide C6-C12) (peptide)
peptide: [pGlu]RPRLCHKGP[Nle]CF-OH
modifications: disulfide 6-12
SMILES: CCCC[C@@H]1NC(=O)[C@@H]2CCCN2C(=O)CNC(=O)[C@H](CCCCN)NC(=O)[C@H](Cc2c[nH]cn2)NC(=O)[C@@H](NC(=O)[C@H](CC(C)C)NC(=O)[C@H](CCCNC(=N)N)NC(=O)[C@@H]2CCCN2C(=O)[C@H](CCCNC(=N)N)NC(=O)[C@@H]2CCC(=O)N2)CSSC[C@@H](C(=O)N[C@@H](Cc2ccccc2)C(=O)O)NC1=O
hAPJ Ca2+ Flux EC50 (APJ): 1.04 nM

B2: Example 27B: Di-fatty acid conjugate of AgRP(83-132) (AgRP+2 FA) (ligand)
chain: {I‑37}-SSRRCVRLHESCLGQQVPCCDPCATCYCRFFNAFCYCRK(I‑37)LGTAMNPCSRT
modifications: disulfide 12-26, 19-37, 5-20, 23-47, 28-35; not fully specified; printed as Ser-Ser-Arg-Arg-Cys-Val-Arg-Leu-H is-Glu-Ser-Cys-Leu-Gly-Gln-Gln-Val-Pro-Cys-Cys-Asp-Pro-Cys-Ala-Thr-Cys-Tyr-Cys-Arg-Phe-Phe-Asn-Ala-Phe-Cys-Tyr-Cys-Arg-Lys-Leu-Gly-Thr-Ala-Met-Asn-Pro-Cys-Ser-Arg-Thr; reading uncertain
MC3R EC50 [nM] (cAMP assay, antagonist protocol) (MC3R): 65 nM | MC4R EC50 [nM] (HTRF cAMP assay) (MC4R): 167 nM

{I‑37}-SSRRCVRLHESCLGQQVPCCDPCATCYCRFFNAFCYCRKLGTAMNPCSRT (ligand, disulfide 12-26, 19-37, 5-20, 23-47, 28-35; reading uncertain) [Example 27A: Mono fatty acid conjugate of AgRP (AgRP+1FA)]
MC3R EC50 [nM] (cAMP assay, antagonist protocol) (MC3R): 7 nM | MC4R EC50 [nM] (HTRF cAMP assay) (MC4R): 18 nM

SSRRCVRLHESCLGQQVPCCDPCATCYCRFFNAFCYCRKLGTAMNPCSRT (ligand, disulfide 12-26, 19-37, 5-20, 23-47, 28-35) [AgRP(83-132)]
MC3R EC50 [nM] (cAMP assay, antagonist protocol) (MC3R): 12 nM

B3: transglutaminase enzyme (Ajinomoto) (enzyme)
chain: DSDDRVTPPAEPLDRMPDPYRPSYGRAETVVNNYIRKWQQVYSHRDGRKQQMTEEQREWLSYGCVGVTWVNSGQYPTNRLAFASFDEDRFKNELKNGRPRSGETRAEFEGRVAKESFDEEKGFQRAREVASVMNRALENAHDESAYLDNLKKELANGNDALRNEDARSPFYSALRNTPSFKERNGGNHDPSRMKAVIYSKHFWSGQDRSSSADKRKYGDPDAFRPAPGTGLVDMSRDRNIPRSPTSPGEGFVNFDYGWFGAQTEADADKTVWTHGNHYHAPNGSLGAMHVYESKFRNWSEGYSDFDRGAYVITFIPKSWNTAPDKVKQGWP
TGase labelling of hFGF23-variant with intermediate 25d, LCMS [3]: 90%

B4: pE-R-P-C*-L-S-C*-K-G-P-(D-Nle)-NH(Phenethyl) (disulfide C4-C7) (peptide)
peptide: ERPCLSCKGPL
modifications: pE (pyroglutamate) at the N-terminus; D-Nle at position 11; C-terminal NH(Phenethyl); disulfide C4-C7
hAPJ Ca2+ Flux EC50 (APJ): 3 nM
